Biological target: Glucagon-like peptide-1 receptor (GLP1R)
Assay: cell-based or functional assay

Sequence of Liraglutide (peptide) (peptide): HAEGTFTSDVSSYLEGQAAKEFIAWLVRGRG

Liraglutide (peptide) was tested, and the Maximum reaction rate (%) was 96.8%.

Reference: patent US20120129768A1
